Source: the Immune Epitope Database (IEDB)

Experiments:
[1] = target: HLA-A*02:01; experiment: IEDB peptide-MHC binding, purified MHC/competitive/fluorescence; ≥ and ≤ were set here for values at or beyond the usual limits of such assays
[2] = target: HLA-A*23:01; experiment: IEDB peptide-MHC binding, purified MHC/competitive/radioactivity; filed as Kd, often an IC50 or EC50 that approximates it; ≥ and ≤ were set here for values at or beyond the usual limits of such assays
[3] = target: HLA-A*24:02; experiment: as above
[4] = target: HLA-A*01:01; experiment: as above
[5] = target: HLA-A*26:01; experiment: as above
[6] = target: HLA-A*29:02; experiment: as above
[7] = target: HLA-A*30:02; experiment: as above
[8] = target: HLA-A*02:01; experiment: IEDB peptide-MHC binding, purified MHC/competitive/fluorescence; filed as Kd, often an IC50 or EC50 that approximates it; ≥ and ≤ were set here for values at or beyond the usual limits of such assays
[9] = target: HLA-A*69:01; experiment: IEDB peptide-MHC binding, purified MHC/direct/fluorescence; filed as Kd, often an IC50 or EC50 that approximates it; ≥ and ≤ were set here for values at or beyond the usual limits of such assays; settings: source organism: Mammarenavirus lassaense
[10] = source organism: Dengue virus 4 Philippines/H241/1956
[11] = source organism: Lymphocytic choriomeningitis virus (strain Armstrong)
[12] = source organism: Mammarenavirus juninense
[13] = source organism: SARS coronavirus Tor2
[14] = source organism: Dengue virus 4 Dominica/814669/1981
[15] = source organism: Mammarenavirus guanaritoense

Sequence | Kd [4, 13] | Kd [5, 13] | Kd [6, 13] | Kd [7, 13] | Kd [2, 13] | Kd [3, 13] | also measured
SISKSNAKC |  |  |  |  |  |  | IC50 ([1]; source organism: Vaccinia virus Copenhagen): 35800 nM
NFLEVEDYGF |  |  |  |  |  |  | Kd [2, 10]: 54.7 nM; Kd [3, 10]: ≥ 31700 nM
CYSSVNDRLV |  |  |  |  |  |  | Kd [4, 11]: 11100 nM; Kd [5, 11]: ≥ 69700 nM; Kd [6, 11]: 13000 nM; Kd [7, 11]: 3960 nM; Kd [2, 11]: 1870 nM; Kd [3, 11]: 1130 nM
RWTQSLRRGL |  |  |  |  |  |  | Kd [6, 12]: 1280 nM; Kd [2, 12]: 5300 nM; Kd [3, 12]: ≥ 70300 nM
MFSPIVPFW | ≥ 78100 nM | ≥ 77900 nM | 95.1 nM | ≥ 30300 nM | 29.2 nM | 111 nM | 
LFADINGKL | ≥ 78100 nM | ≥ 41700 nM | 470 nM | 4340 nM | 1300 nM | 722 nM | 
CMLDGGNML |  |  |  |  |  |  | Kd ([8]; source organism: Lassa virus Josiah): 2.97 nM; Kd [9]: ≥ 20000 nM
ESQMLIPKSY |  |  |  |  |  |  | Kd [4, 14]: 8370 nM; Kd [7, 14]: 1210 nM
ALSPPLLLL |  |  |  |  |  |  | Kd ([8]; source organism: Escherichia coli E22): 157 nM
CFANKHAGF | ≥ 78100 nM | 11800 nM | 28.8 nM | 6620 nM | 105 nM | 27.4 nM | 
GVIHNSTLQ |  |  |  |  |  |  | IC50 ([1]; source organism: Zaire ebolavirus): ≥ 121000 nM
GYVTHGFNL | ≥ 78100 nM | ≥ 77900 nM | 839 nM | ≥ 78900 nM | 234 nM | 1210 nM | 
VFQAKSAFV |  |  |  |  |  |  | Kd [4, 15]: ≥ 31400 nM; Kd [5, 15]: ≥ 77900 nM; Kd [6, 15]: ≥ 78900 nM; Kd [7, 15]: 1050 nM; Kd [2, 15]: 855 nM; Kd [3, 15]: 1060 nM
GTDLEGKFY | 33.4 nM | ≥ 38800 nM | 273 nM | 1390 nM | ≥ 77800 nM | ≥ 77600 nM | 
SWFITQRNFF | 828 nM | 12500 nM | 53.2 nM | 1030 nM | 0.0458 nM | 0.035 nM | 
